According to patent US20130280807A1, “CELL CULTURE CHAMBER, METHOD FOR PRODUCING SAME, TISSUE MODEL USING CELL CULTURE CHAMBER, AND METHOD FOR PRODUCING SAME” (priority 2010, published 2013):

Tested on: PC-12 cells
Assay: Neurite extension of PC-12 cells by the effect of NGF through membrane
Assay type: cell-based
Conditions: 2 days
Experimental: The vitrigel chamber was hung and held in the container (FIGS. 5, (A) and (B)), and PC-12 cells suspended in a culture medium [Dulbecco's modified Eagle's culture medium (GIBCO BRL #11885-084) containing 10% inactivated fetal bovine serum (Sigma #F2442), 20 mM HEPES (GIBCO BRL #15630), 100 units/ml penicillin, and 100 μg/ml streptomycin] were seeded in 2.5×10^3 cells/cm^2 in the vitrigel chamber. A culture medium (1.2 ml), either containing NGF (upstate #01-125; 5 ng/ml) or by itself, was also injected into the container (FIG. 13).
The same experiment was conducted with the commercially available collagen membrane chamber (Koken; permeable collagen membrane #CM-24 for cell culture).

B1: NGF: NGF (upstate #01-125; 5 ng/ml) added to culture medium, acting on PC-12 cells (protein, UniProt P01139 122-241, looked up)
Beta-nerve growth factor: SSTHPVFHMGEFSVCDSVSVWVGDKTTATDIKGKEVTVLAEVNINNSVFRQYFFETKCRASNPVESGCRGIDSKHWNSYCTTTHTFVKALTTDEKQAAWRFIRIDTACVCVLSRKATRRG
modifications: Beta-nerve growth factor
notes: NGF (upstate #01-125; 5 ng/ml) added to culture medium, acting on PC-12 cells
Commercially available collagen membrane chamber (Koken #CM-24), NGF in container
  neurite extension of PC-12 cells (cell morphology, phase-contrast microscope): neurite extension was not confirmed
Vitrigel chamber, NGF 5 ng/ml in culture medium in container, acting through vitrigel membrane
  neurite extension of PC-12 cells (cell morphology, phase-contrast microscope): neurite extension was confirmed
